Data on 5 molecules can be found in PMC9243173, “Iron-regulated assembly of the cytosolic iron–sulfur cluster biogenesis machinery” (The Journal of Biological Chemistry, 2022).

Holding throughout (experiment): affinity purification with mass spectrometry; anti-HA beads on lysates of Flp-In 293 cells expressing the 3HA-3FLAG-tagged bait (NUBP2, wildtype or mutant CIAO3); targeted proteomics assay (parallel reaction monitoring) of CIA components and substrates; CIAO3 purifications normalised to CIAO3; wildtype CIAO3 cells also treated with FAC or DFO for 8 h
Conditions in all cases: partners not purified

The target in one assay is T1, 3HA-3FLAG-CIAO3-C71S (human, UniProt Q9H6Q4 1-476, C71S).
T1 construct: human CIAO3 (NARFL), as m13, with C71S (N-terminal Fe-S cluster site); also called C71S mutant; source: Flp-In T-REx 293, stably expressed, induced with doxycycline, in lysate; not shown: 3xHA, N-terminal, kept; 3xFLAG, N-terminal, kept

Assay [1] deals with T2, 3HA-3FLAG-CIAO3-C71S/C190S/C395S (human, UniProt Q9H6Q4 1-476, C71S | C190S | C395S).
T2 construct: human CIAO3 (NARFL), as m13, with C71S, C190S and C395S; also called C71S/C190S/C395S mutant; source: Flp-In T-REx 293, stably expressed, induced with doxycycline, in lysate; not shown: 3xHA, N-terminal, kept; 3xFLAG, N-terminal, kept

Assay [2] has as its target T3, 3HA-3FLAG-CIAO3-C190S/C395S (human, UniProt Q9H6Q4 1-476, C190S | C395S).
T3 construct: human CIAO3 (NARFL), as m13, with C190S and C395S (C-terminal Fe-S cluster site); also called C190S/C395S mutant; source: Flp-In T-REx 293, stably expressed, induced with doxycycline, in lysate; not shown: 3xHA, N-terminal, kept; 3xFLAG, N-terminal, kept

Assay [3] has as its target T4, 3HA-3FLAG-CIAO3, wildtype (human, UniProt Q9H6Q4 1-476).
T4 construct: human CIAO3 (NARFL) cDNA, amplified with primers from the start codon to the stop codon, in pcDNA5/FRT with an N-terminal tandem 3xHA-3xFLAG tag; also called 3HA-3FLAG-tagged CIAO3; wildtype CIAO3; source: Flp-In T-REx 293, stably expressed, induced with doxycycline, in lysate; not shown: 3xHA, N-terminal, kept; 3xFLAG, N-terminal, kept

T1 sequence (Q9H6Q4 whole entry C71S): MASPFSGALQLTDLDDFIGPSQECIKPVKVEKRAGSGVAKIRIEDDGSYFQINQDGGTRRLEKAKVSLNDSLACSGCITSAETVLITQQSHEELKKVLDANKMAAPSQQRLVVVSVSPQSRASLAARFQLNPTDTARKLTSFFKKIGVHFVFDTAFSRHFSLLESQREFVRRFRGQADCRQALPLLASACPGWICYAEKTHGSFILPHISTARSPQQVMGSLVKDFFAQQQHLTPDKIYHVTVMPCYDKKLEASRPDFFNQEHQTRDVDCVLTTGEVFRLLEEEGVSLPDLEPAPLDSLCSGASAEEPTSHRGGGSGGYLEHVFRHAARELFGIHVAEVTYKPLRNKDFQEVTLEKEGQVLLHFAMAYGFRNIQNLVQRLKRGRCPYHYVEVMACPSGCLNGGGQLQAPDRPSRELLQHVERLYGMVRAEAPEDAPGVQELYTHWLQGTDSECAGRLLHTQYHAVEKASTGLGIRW
T2 sequence (Q9H6Q4 whole entry C71S/C190S/C395S): as the sequence (Q9H6Q4 whole entry C71S) above, with C190S, C395S counted along it
T4 sequence (Q9H6Q4 whole entry): as the sequence (Q9H6Q4 whole entry C71S) above, with S71C counted along it
T3 sequence (Q9H6Q4 whole entry C190S/C395S): as the sequence (Q9H6Q4 whole entry C71S) above, with S71C, C190S, C395S counted along it

B1: probable cytosolic iron-sulfur protein assembly protein CIAO1 (natural protein)
chain: not shown
notes: CIAO1, component of the CIA targeting complex, endogenous; source: endogenous, Flp-In T-REx 293 lysate
For the molecule B1, in the assay with 3HA-3FLAG-CIAO3-C71S, the “fold decrease against wildtype CIAO3” value is around 5 fold. For the same molecule, the “fold change against wildtype CIAO3” value in assay [1] stood at 2 fold.

B2: nucleotide-binding protein 1 (NUBP1) (natural protein, human (endogenous in Flp-In T-REx 293), UniProt P53384 1-320, looked up)
chain: MEEVPHDCPGADSAQAGRGASCQGCPNQRLCASGAGATPDTAIEEIKEKMKTVKHKILVLSGKGGVGKSTFSAHLAHGLAEDENTQIALLDIDICGPSIPKIMGLEGEQVHQSGSGWSPVYVEDNLGVMSVGFLLSSPDDAVIWRGPKKNGMIKQFLRDVDWGEVDYLIVDTPPGTSDEHLSVVRYLATAHIDGAVIITTPQEVSLQDVRKEINFCRKVKLPIIGVVENMSGFICPKCKKESQIFPPTTGGAELMCQDLEVPLLGRVPLDPLIGKNCDKGQSFFIDAPDSPATLAYRSIIQRIQEFCNLHQSKEENLISS
notes: also called NBP35; source: endogenous, Flp-In T-REx 293 lysate
For B2, the “fold reduction against wildtype CIAO3” value (in assay [2]; in the assay with 3HA-3FLAG-CIAO3-C71S; in assay [1]) was above 32 fold each time. In assay [3], the “fold reduction in iron-deficient (DFO) against iron-replete (FAC) conditions” value is around 4 fold.

B3: cytosolic iron-sulfur assembly component 2B (CIAO2B) (natural protein, human (endogenous in Flp-In T-REx 293), UniProt Q9Y3D0 1-163, looked up)
chain: MVGGGGVGGGLLENANPLIYQRSGERPVTAGEEDEQVPDSIDAREIFDLIRSINDPEHPLTLEELNVVEQVRVQVSDPESTVAVAFTPTIPHCSMATLIGLSIKVKLLRSLPQRFKMDVHITPGTHASEHAVNKQLADKERVAAALENTHLLEVVNQCLSARS
notes: CIAO2B (cytosolic iron-sulfur assembly component 2B), component of the CIA targeting complex, endogenous; source: endogenous, Flp-In T-REx 293 lysate
Turning to B3, the “fold decrease against wildtype CIAO3” value with 3HA-3FLAG-CIAO3-C71S was around 5 fold. Further, the “fold change against wildtype CIAO3” value in assay [1] stood at 2 fold.

B4: MMS19 nucleotide excision repair protein homolog (MMS19) (natural protein, human (endogenous in Flp-In T-REx 293), UniProt Q96T76 1-1030, looked up)
chain: MAAAAAVEAAAPMGALWGLVHDFVVGQQEGPADQVAADVKSGNYTVLQVVEALGSSLENPEPRTRARAIQLLSQVLLHCHTLLLEKEVVHLILFYENRLKDHHLVIPSVLQGLKALSLCVALPPGLAVSVLKAIFQEVHVQSLPQVDRHTVYNIITNFMRTREEELKSLGADFTFGFIQVMDGEKDPRNLLVAFRIVHDLISRDYSLGPFVEELFEVTSCYFPIDFTPPPNDPHGIQREDLILSLRAVLASTPRFAEFLLPLLIEKVDSEVLSAKLDSLQTLNACCAVYGQKELKDFLPSLWASIRREVFQTASERVEAEGLAALHSLTACLSRSVLRADAEDLLDSFLSNILQDCRHHLCEPDMKLVWPSAKLLQAAAGASARACDSVTSNVLPLLLEQFHKHSQSSQRRTILEMLLGFLKLQQKWSYEDKDQRPLNGFKDQLCSLVFMALTDPSTQLQLVGIRTLTVLGAQPDLLSYEDLELAVGHLYRLSFLKEDSQSCRVAALEASGTLAALYPVAFSSHLVPKLAEELRVGESNLTNGDEPTQCSRHLCCLQALSAVSTHPSIVKETLPLLLQHLWQVNRGNMVAQSSDVIAVCQSLRQMAEKCQQDPESCWYFHQTAIPCLLALAVQASMPEKEPSVLRKVLLEDEVLAAMVSVIGTATTHLSPELAAQSVTHIVPLFLDGNVSFLPENSFPSRFQPFQDGSSGQRRLIALLMAFVCSLPRNVEIPQLNQLMRELLELSCCHSCPFSSTAAAKCFAGLLNKHPAGQQLDEFLQLAVDKVEAGLGSGPCRSQAFTLLLWVTKALVLRYHPLSSCLTARLMGLLSDPELGPAAADGFSLLMSDCTDVLTRAGHAEVRIMFRQRFFTDNVPALVQGFHAAPQDVKPNYLKGLSHVLNRLPKPVLLPELPTLLSLLLEALSCPDCVVQLSTLSCLQPLLLEAPQVMSLHVDTLVTKFLNLSSSPSMAVRIAALQCMHALTRLPTPVLLPYKPQVIRALAKPLDDKKRLVRKEAVSARGEWFLLGSPGS
notes: MMS19 nucleotide excision repair protein homolog, component of the CIA targeting complex, endogenous; source: endogenous, Flp-In T-REx 293 lysate
Regarding B4, the “fold decrease against wildtype CIAO3” value with 3HA-3FLAG-CIAO3-C71S was around 5 fold. Also, the “fold change against wildtype CIAO3” value in assay [1] was found to be 2 fold.

B5: nucleotide-binding protein 2 (NUBP2), endogenous (natural protein, human (endogenous in Flp-In T-REx 293), UniProt Q9Y5Y2 1-271, looked up)
chain: MEAAAEPGNLAGVRHIILVLSGKGGVGKSTISTELALALRHAGKKVGILDVDLCGPSIPRMLGAQGRAVHQCDRGWAPVFLDREQSISLMSVGFLLEKPDEAVVWRGPKKNALIKQFVSDVAWGELDYLVVDTPPGTSDEHMATIEALRPYQPLGALVVTTPQAVSVGDVRRELTFCRKTGLRVMGIVENMSGFTCPHCTECTSVFSRGGGEELAQLAGVPFLGSVPLDPALMRTLEEGHDFIQEFPGSPAFAALTSIAQKILDATPACLP
notes: also called CFD1; source: endogenous, Flp-In T-REx 293 lysate
As for B5, the “fold reduction against wildtype CIAO3” value (in assay [2]; in the assay with 3HA-3FLAG-CIAO3-C71S; in assay [1]) was above 32 fold throughout. For the same molecule, the “fold reduction in iron-deficient (DFO) against iron-replete (FAC) conditions” value in assay [3] was around 4 fold.
